Assay results: PMC406421 (Nuclear Receptor, 2004)

Columns and labels:
[1] = biological target: GAL4-DBD/DRIP205 receptor interaction domain fusion protein (human) (UniProt Q15648); assay: two-hybrid
[2] = biological target: GAL4-DBD/DRIP205 receptor interaction domain fusion protein (human, UniProt Q15648 527-774); assay: two-hybrid
Sequence of GAL4-DBD/DRIP205 receptor interaction domain fusion protein (Q15648 527-774): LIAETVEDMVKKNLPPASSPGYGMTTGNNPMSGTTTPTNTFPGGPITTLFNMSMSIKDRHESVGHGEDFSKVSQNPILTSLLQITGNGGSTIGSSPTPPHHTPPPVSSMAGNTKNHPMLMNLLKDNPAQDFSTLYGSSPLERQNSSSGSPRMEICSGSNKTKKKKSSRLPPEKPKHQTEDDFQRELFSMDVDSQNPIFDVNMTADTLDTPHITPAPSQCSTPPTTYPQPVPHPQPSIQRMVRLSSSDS

Sequence of VP16-AD/CAR-LBD fusion protein of CAR(SV2) (Q14994 whole entry, the tested form may be a part): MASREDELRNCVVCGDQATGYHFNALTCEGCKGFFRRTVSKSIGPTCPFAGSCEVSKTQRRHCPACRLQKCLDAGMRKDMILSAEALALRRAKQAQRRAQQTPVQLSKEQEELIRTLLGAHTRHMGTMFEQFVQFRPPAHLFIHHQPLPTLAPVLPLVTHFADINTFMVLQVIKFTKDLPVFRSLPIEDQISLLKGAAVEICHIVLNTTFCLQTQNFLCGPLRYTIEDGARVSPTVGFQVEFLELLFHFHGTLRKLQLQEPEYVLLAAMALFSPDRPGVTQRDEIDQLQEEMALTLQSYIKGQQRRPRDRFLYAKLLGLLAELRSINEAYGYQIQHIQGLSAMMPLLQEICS
Sequence of GAL4-DBD/DRIP205 receptor interaction domain fusion protein (human) (Q15648 527-774): as the sequence (Q15648 527-774) above

| Molecule | fold induction of the interaction by CITCO over Me2SO (two-hybrid reporter) [1] [fold] | fold induction of the interaction by CITCO over Me2SO (two-hybrid reporter) [2] [fold] |
| --- | --- | --- |
| VP16-AD/CAR-LBD fusion protein of CAR(SV2) (from UniProt Q14994-2 105-348) (domain or fragment) | 100 | – |
| VP16-AD/CAR-LBD fusion protein of reference CAR(SV1) (domain or fragment, human, UniProt Q14994-2 105-348, looked up) QLSKEQEELIRTLLGAHTRHMGTMFEQFVQFRPPAHLFIHHQPLPTLAPVLPLVTHFADINTFMVLQVIKFTKDLPVFRSLPIEDQISLLKGAAVEICHIVLNTTFCLQTQNFLCGPLRYTIEDGARVGFQVEFLELLFHFHGTLRKLQLQEPEYVLLAAMALFSPDRPGVTQRDEIDQLQEEMALTLQSYIKGQQRRPRDRFLYAKLLGLLAELRSINEAYGYQIQHIQGLSAMMPLLQEICS | – | 2 |
